The results in this text go back to PMC3946817 (Journal of molecular biology, 2013).

This data set concerns the molecule itself. Kind of data set: ThT fluorescence + AFM.

For VANAFIICGTLYTVSSY [peptide P3 (V426ANAFIICGTLYTVSSY) of myoc-OLF], the binding result is recorded as “binds”.
Regarding GAVVYSGSLYFQ [peptide P1 (G326AVVYSGSLYFQ) of myoc-OLF], the binding result is listed as “binds”.
